What was measured:
FcRn (mouse) = FcRn (mouse) (UniProt Q61559)
FcγRI (mouse) = FcγRI (mouse) (UniProt P26151)
FcγRIIB (mouse) = FcγRIIB (mouse) (UniProt P08101)
FcγRIII (mouse) = FcγRIII (mouse) (UniProt P08508)
FcαμR (mouse) = FcαμR (mouse) (UniProt Q2TB54)
FcμR (mouse) = FcμR (mouse) (UniProt A1KXC4)
Sequence of UniProt A1KXC4 (A1KXC4 17-422): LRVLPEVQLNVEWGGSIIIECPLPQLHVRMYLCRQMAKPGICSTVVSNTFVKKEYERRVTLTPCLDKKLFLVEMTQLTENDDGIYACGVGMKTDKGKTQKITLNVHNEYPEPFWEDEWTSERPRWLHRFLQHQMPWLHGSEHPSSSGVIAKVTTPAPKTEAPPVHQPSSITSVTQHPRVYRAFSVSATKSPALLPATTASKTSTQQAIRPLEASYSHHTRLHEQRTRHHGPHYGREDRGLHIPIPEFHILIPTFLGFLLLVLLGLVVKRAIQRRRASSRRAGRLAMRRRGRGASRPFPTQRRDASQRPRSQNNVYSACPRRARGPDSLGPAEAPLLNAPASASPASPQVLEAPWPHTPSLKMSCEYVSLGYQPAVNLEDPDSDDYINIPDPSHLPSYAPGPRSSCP

Sequence of UniProt P26151 (P26151 25-404): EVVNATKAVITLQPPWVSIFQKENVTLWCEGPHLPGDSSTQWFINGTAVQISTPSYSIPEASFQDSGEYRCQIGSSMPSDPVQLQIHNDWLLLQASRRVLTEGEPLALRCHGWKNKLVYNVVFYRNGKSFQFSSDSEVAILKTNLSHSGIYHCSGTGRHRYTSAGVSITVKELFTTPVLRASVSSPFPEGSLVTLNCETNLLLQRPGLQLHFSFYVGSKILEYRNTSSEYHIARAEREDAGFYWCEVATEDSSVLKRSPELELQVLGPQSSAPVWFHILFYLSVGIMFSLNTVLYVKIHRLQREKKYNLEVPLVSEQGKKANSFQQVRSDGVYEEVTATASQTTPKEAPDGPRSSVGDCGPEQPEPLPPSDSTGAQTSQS
Sequence of UniProt P08508 (P08508 31-261): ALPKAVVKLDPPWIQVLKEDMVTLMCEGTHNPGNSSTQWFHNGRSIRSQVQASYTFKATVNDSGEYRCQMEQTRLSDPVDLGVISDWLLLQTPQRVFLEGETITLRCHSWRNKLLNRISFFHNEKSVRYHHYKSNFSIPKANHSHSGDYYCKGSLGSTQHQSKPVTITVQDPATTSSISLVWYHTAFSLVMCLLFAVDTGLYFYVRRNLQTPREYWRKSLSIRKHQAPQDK
Sequence of UniProt Q2TB54 (Q2TB54 36-535): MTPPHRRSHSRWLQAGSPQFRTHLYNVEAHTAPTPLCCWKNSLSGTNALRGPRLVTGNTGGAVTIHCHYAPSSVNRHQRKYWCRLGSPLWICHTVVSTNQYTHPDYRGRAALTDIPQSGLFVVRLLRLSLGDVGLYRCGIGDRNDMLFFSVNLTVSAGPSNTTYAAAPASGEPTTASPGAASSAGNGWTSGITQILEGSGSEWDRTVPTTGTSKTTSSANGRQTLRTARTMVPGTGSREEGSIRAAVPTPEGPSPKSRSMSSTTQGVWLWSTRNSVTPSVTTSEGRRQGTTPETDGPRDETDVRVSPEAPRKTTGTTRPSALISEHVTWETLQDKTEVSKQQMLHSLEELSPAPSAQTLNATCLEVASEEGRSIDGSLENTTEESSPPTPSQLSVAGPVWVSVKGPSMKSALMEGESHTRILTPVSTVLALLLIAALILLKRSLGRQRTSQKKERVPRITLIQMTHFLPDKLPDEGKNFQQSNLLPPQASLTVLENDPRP
Sequence of UniProt P08101 (P08101 30-330): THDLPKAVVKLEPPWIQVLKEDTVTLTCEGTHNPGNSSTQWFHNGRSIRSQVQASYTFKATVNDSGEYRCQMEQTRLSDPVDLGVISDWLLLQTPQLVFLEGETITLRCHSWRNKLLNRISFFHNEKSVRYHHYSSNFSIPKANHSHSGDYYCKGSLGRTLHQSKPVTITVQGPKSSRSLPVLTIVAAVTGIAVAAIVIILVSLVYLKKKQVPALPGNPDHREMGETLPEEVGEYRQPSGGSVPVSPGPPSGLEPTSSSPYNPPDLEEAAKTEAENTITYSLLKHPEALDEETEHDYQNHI
Sequence of UniProt Q61559 (Q61559 22-365): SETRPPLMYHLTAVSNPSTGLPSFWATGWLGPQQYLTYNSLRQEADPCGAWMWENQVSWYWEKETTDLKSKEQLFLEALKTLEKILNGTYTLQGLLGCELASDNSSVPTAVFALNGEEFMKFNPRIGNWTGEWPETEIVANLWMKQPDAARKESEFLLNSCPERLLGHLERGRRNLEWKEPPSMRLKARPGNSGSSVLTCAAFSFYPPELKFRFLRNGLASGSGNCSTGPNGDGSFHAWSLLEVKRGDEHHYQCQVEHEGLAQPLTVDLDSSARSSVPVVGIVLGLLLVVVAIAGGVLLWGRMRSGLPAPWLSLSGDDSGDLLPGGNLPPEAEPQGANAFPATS

T15 IgG3 (murine monoclonal anti-phosphocholine antibody of the T15 idiotype, IgG3 form)
< 5%: adhesion of T15 IgG3-opsonized Spn6A pneumococci to CHO cells stably expressing the receptor (MOI 1, T15 antibody 50 μg/ml); no notable increase; anti-capsule antibody control 85% binding (FcRn (mouse)) | adhesion of T15 IgG3-opsonized Spn6A pneumococci to CHO cells stably expressing the receptor (MOI 1, T15 antibody 50 μg/ml); no notable increase; anti-capsule antibody control 85% binding (FcγRI (mouse)) | adhesion of T15 IgG3-opsonized Spn6A pneumococci to CHO cells stably expressing the receptor (MOI 1, T15 antibody 50 μg/ml); no notable increase; anti-capsule antibody control 85% binding (FcγRIIB (mouse)) | adhesion of T15 IgG3-opsonized Spn6A pneumococci to CHO cells stably expressing the receptor (MOI 1, T15 antibody 50 μg/ml); no notable increase; anti-capsule antibody control 85% binding (FcγRIII (mouse)) | adhesion of T15 IgG3-opsonized Spn6A pneumococci to CHO cells stably expressing the receptor (MOI 1, T15 antibody 50 μg/ml); no notable increase; anti-capsule antibody control 85% binding (FcγRIV (mouse))

T15 IgM (murine monoclonal anti-phosphocholine antibody of the T15 idiotype, IgM form) (from UniProt P01592 22-159)
< 5%: adhesion of T15 IgM-opsonized Spn6A pneumococci to CHO cells stably expressing the receptor (MOI 1, T15 antibody 50 μg/ml); no notable increase; anti-capsule antibody control 85% binding (FcαμR (mouse)) | adhesion of T15 IgM-opsonized Spn6A pneumococci to CHO cells stably expressing the receptor (MOI 1, T15 antibody 50 μg/ml); no notable increase; anti-capsule antibody control 85% binding (FcμR (mouse))

From PMC11900858
